Measurements published in PMC4513852.
Where two headings read alike, the source gives them in different places.

Assays:
[1] = target: Hin F106H (Salmonella enterica) (UniProt P03013); assay: native gel or EMSA
[2] = target: Hin F106S (Salmonella enterica) (UniProt P03013); assay: native gel or EMSA
[3] = target: Hin M109H (Salmonella enterica) (UniProt P03013); assay: native gel or EMSA
[4] = target: Hin M109H (Salmonella enterica) (UniProt P03013); assay: native gel or EMSA; remark: listed apart in the source
[5] = target: Hin F106M (Salmonella enterica) (UniProt P03013); assay: native gel or EMSA
[6] = target: Hin F106L (Salmonella enterica) (UniProt P03013); assay: native gel or EMSA
[7] = target: Hin F105Q (Salmonella enterica) (UniProt P03013); assay: native gel or EMSA
[8] = target: Hin M109K (Salmonella enterica) (UniProt P03013); assay: native gel or EMSA
[9] = target: Hin F106W (Salmonella enterica) (UniProt P03013); assay: native gel or EMSA
[10] = target: Hin F105M (Salmonella enterica) (UniProt P03013); assay: native gel or EMSA
[11] = target: Hin F106N (Salmonella enterica) (UniProt P03013); assay: native gel or EMSA
[12] = target: Hin F105L (Salmonella enterica) (UniProt P03013); assay: native gel or EMSA
[13] = target: Hin F105V (Salmonella enterica) (UniProt P03013); assay: native gel or EMSA
[14] = target: Hin M109R (Salmonella enterica) (UniProt P03013); assay: native gel or EMSA
[15] = target: Hin M109W (Salmonella enterica) (UniProt P03013); assay: native gel or EMSA
[16] = target: Hin M109Q (Salmonella enterica) (UniProt P03013); assay: native gel or EMSA
[17] = target: Hin F105I (Salmonella enterica) (UniProt P03013); assay: native gel or EMSA
[18] = target: Hin F106I (Salmonella enterica) (UniProt P03013); assay: native gel or EMSA
[19] = target: Hin-Q134C (wt) (Salmonella enterica) (UniProt P03013); assay: cross-linking
[20] = target: Hin M109F (Salmonella enterica) (UniProt P03013); assay: native gel or EMSA
[21] = target: Hin F106E (Salmonella enterica) (UniProt P03013); assay: native gel or EMSA
[22] = target: Hin F106D (Salmonella enterica) (UniProt P03013); assay: native gel or EMSA
[23] = target: Hin F106Y (Salmonella enterica) (UniProt P03013)
[24] = target: Hin F106Y (Salmonella enterica) (UniProt P03013); assay: native gel or EMSA
[25] = target: Hin F106G (Salmonella enterica) (UniProt P03013); assay: native gel or EMSA
[26] = target: Hin F105H (Salmonella enterica) (UniProt P03013); assay: native gel or EMSA
[27] = target: Hin F106A (Salmonella enterica) (UniProt P03013); assay: native gel or EMSA
[28] = target: Hin F106R (Salmonella enterica) (UniProt P03013); assay: native gel or EMSA
[29] = target: Hin F106Q (Salmonella enterica) (UniProt P03013); assay: native gel or EMSA
[30] = target: Hin F106T (Salmonella enterica) (UniProt P03013); assay: native gel or EMSA
[31] = target: Hin F106K (Salmonella enterica) (UniProt P03013); assay: native gel or EMSA
[32] = target: Hin F105C (Salmonella enterica) (UniProt P03013); assay: native gel or EMSA
[33] = target: Hin F106P (Salmonella enterica) (UniProt P03013); assay: native gel or EMSA
[34] = target: Hin F105W (Salmonella enterica) (UniProt P03013); assay: native gel or EMSA
[35] = target: Hin F106C (Salmonella enterica) (UniProt P03013); assay: native gel or EMSA
[36] = target: Hin M109N (Salmonella enterica) (UniProt P03013); assay: native gel or EMSA
[37] = target: Hin M109Y (Salmonella enterica) (UniProt P03013); assay: native gel or EMSA
[38] = target: Hin F106V (Salmonella enterica) (UniProt P03013); assay: native gel or EMSA

Hin F106H (from UniProt P03013 1-190) (enzyme)
stoichiometry N [1]: 2

Hin F106S (from UniProt P03013 1-190) (enzyme)
stoichiometry N [2]: 2

Hin M109H (from UniProt P03013 1-190) (enzyme)
stoichiometry N [3]: 4 | stoichiometry N [4]: 2

Hin F106M (from UniProt P03013 1-190) (enzyme)
stoichiometry N [5]: 2

Hin F106L (from UniProt P03013 1-190) (enzyme)
stoichiometry N [6]: 2

Hin F105Q (from UniProt P03013 1-190) (enzyme)
stoichiometry N [7]: 4

Hin M109K (from UniProt P03013 1-190) (enzyme)
stoichiometry N [8]: 4

Hin F106W (from UniProt P03013 1-190) (enzyme)
stoichiometry N [9]: 2

Hin F105M (from UniProt P03013 1-190) (enzyme)
stoichiometry N [10]: 4

Hin F106N (from UniProt P03013 1-190) (enzyme)
stoichiometry N [11]: 2

Hin F105L (from UniProt P03013 1-190) (enzyme)
stoichiometry N [12]: 4

Hin F105V (from UniProt P03013 1-190) (enzyme)
stoichiometry N [13]: 4

Hin M109R (from UniProt P03013 1-190) (enzyme)
stoichiometry N [14]: 4

Hin M109W (from UniProt P03013 1-190) (enzyme)
stoichiometry N [15]: 4

Hin M109Q (from UniProt P03013 1-190) (enzyme)
stoichiometry N [16]: 4

Hin F105I (from UniProt P03013 1-190) (enzyme)
stoichiometry N [17]: 4

Hin F106I (from UniProt P03013 1-190) (enzyme)
stoichiometry N [18]: 2

Hin-Q134C (wt) (from UniProt P03013 1-190) (enzyme)
percent crosslinked products [19]: 65%

Hin M109F (from UniProt P03013 1-190) (enzyme)
stoichiometry N [20]: 2

Hin F106E (from UniProt P03013 1-190) (enzyme)
stoichiometry N [21]: 2

Hin F106D (from UniProt P03013 1-190) (enzyme)
stoichiometry N [22]: 2

Hin F106Y (from UniProt P03013 1-190) (enzyme)
Fis-activated in vitro DNA inversion rate, relative to wild type (% of the wild-type rate) [23]: 10 | stoichiometry N [24]: 2

Hin F106G (from UniProt P03013 1-190) (enzyme)
stoichiometry N [25]: 2

Hin F105H (from UniProt P03013 1-190) (enzyme)
stoichiometry N [26]: 4

Hin F106A (from UniProt P03013 1-190) (enzyme)
stoichiometry N [27]: 2

Hin F106R (from UniProt P03013 1-190) (enzyme)
stoichiometry N [28]: 2

Hin F106Q (from UniProt P03013 1-190) (enzyme)
stoichiometry N [29]: 2

Hin F106T (from UniProt P03013 1-190) (enzyme)
stoichiometry N [30]: 2

Hin F106K (from UniProt P03013 1-190) (enzyme)
stoichiometry N [31]: 2

Hin F105C (from UniProt P03013 1-190) (enzyme)
stoichiometry N [32]: 4

Hin F106P (from UniProt P03013 1-190) (enzyme)
stoichiometry N [33]: 2

Hin F105W (from UniProt P03013 1-190) (enzyme)
stoichiometry N [34]: 4

Hin F106C (from UniProt P03013 1-190) (enzyme)
stoichiometry N [35]: 2

Hin M109N (from UniProt P03013 1-190) (enzyme)
stoichiometry N [36]: 2

Hin M109Y (from UniProt P03013 1-190) (enzyme)
stoichiometry N [37]: 4

Hin F106V (from UniProt P03013 1-190) (enzyme)
stoichiometry N [38]: 2
